According to PMC8092406 (Proceedings of the National Academy of Sciences of the …, 2021):

B1: Cp149, CTD-less HBV core protein (domain or fragment)
chain: MDIDPYKEFGATVELLSFLPSDFFPSVRDLLDTASALYREALESPEHCSPHHTALRQAILCWGELMTLATWVGVNLEDPASRDLVVSYVNTNMGLKFRQLLWFHISCLTFGRETVIEYLVSFGVWIRTPPAYRPPNAPILSTLPETTVV
B2: Cp183-F97L (natural protein)
chain: MDIDPYKEFGATVELLSFLPSDFFPSVRDLLDTASALYREALESPEHCSPHHTALRQAILCWGELMTLATWVGVNLEDPASRDLVVSYVNTNMGLKLRQLLWFHISCLTFGRETVIEYLVSFGVWIRTPPAYRPPNAPILSTLPETTVVRRRGRSPRRRTPSPRRRRSQSPRRRRSQSRESQC

Molecular target: the molecule itself
Assay: negative-stain electron microscopy

Protein	binding result
B1	binds
B2	binds
